Assay results taken from the supplement of paper PMC9876800.

System: peptide library, one residue held at a place counted from the S/T acceptor
Test: relative phosphorylation of the sub-library (ratio to the mean residue at this position); higher = residue favoured
Details: human
In short: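 Human or orthologue kinase constructs, purified and recombinant, were incubated under kinase-specific conditions in 384-well plates with biotinylated degenerate peptide sub-libraries. Each sub-library fixed one residue at one position around a central Ser/Thr. Incubations lasted 90 min with peptides at 50 μM and 50 μM ATP spiked with γ-32P-ATP, after which spots on streptavidin membranes were phosphorimaged and quantified by densitometry. Relative sub-library phosphorylation is a ratio to the mean residue at that position.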

Sequence of NLK, construct: Full length (Q9UBE8 whole entry, looked up): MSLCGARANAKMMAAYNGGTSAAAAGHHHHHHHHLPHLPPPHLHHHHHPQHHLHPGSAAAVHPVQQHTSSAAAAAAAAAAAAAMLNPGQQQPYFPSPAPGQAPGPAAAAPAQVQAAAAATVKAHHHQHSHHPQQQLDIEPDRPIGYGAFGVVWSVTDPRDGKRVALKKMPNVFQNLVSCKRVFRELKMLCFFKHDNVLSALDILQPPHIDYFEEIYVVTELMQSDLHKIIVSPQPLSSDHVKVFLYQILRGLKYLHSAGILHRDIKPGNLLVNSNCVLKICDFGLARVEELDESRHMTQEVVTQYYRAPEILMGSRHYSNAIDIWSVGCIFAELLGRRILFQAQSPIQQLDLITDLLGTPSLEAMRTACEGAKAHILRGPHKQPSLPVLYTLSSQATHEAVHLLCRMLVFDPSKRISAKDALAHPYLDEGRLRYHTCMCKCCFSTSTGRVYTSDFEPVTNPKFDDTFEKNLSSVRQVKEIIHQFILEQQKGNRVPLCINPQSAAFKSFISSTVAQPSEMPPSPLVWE
Sequence of IRAK1, construct: aa186-530 (P51617 186-530, looked up): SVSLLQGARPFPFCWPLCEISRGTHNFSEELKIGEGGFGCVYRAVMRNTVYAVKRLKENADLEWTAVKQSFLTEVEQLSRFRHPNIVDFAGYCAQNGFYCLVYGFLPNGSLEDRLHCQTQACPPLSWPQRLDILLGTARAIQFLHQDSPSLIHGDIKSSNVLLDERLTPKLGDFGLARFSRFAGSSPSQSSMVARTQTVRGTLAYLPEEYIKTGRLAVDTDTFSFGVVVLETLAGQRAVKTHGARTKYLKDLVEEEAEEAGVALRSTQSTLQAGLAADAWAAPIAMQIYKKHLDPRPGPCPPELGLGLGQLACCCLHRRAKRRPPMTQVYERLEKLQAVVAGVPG

NLK, construct: Full length (from UniProt Q9UBE8)
relative phosphorylation
Details | at +1 | at +2 | at +3 | at +4 | at -1 | at -2 | at -3 | at -4 | at -5
A fixed | 0.638 | 0.768 | 0.938 | 0.8 | 0.85 | 0.989 | 1.12 | 1.03 | 0.998
D fixed | 0.435 | 0.514 | 0.628 | 0.634 | 0.604 | 0.568 | 0.652 | 0.931 | 1.01
E fixed | 0.41 | 0.477 | 0.618 | 0.607 | 0.571 | 0.604 | 0.729 | 0.855 | 0.86
F fixed | 0.806 | 0.705 | 0.863 | 0.75 | 0.88 | 0.807 | 0.723 | 0.802 | 0.926
G fixed | 1.01 | 0.96 | 1.25 | 0.939 | 0.904 | 0.764 | 1.38 | 1.01 | 0.982
H fixed | 0.652 | 1.23 | 1.04 | 0.982 | 1.21 | 0.842 | 0.819 | 1.11 | 1.02
I fixed | 0.888 | 0.99 | 1.24 | 1.37 | 0.868 | 0.941 | 0.579 | 0.931 | 0.847
K fixed | 0.654 | 1.56 | 1.39 | 1.47 | 1.16 | 0.992 | 0.991 | 1.18 | 1.19
L fixed | 0.921 | 1.12 | 0.995 | 1 | 1.9 | 1.81 | 1.12 | 1.03 | 0.995
M fixed | 0.902 | 0.853 | 1.01 | 0.983 | 1.38 | 1.56 | 1.63 | 0.992 | 0.768
N fixed | 0.581 | 0.991 | 0.762 | 0.868 | 0.805 | 0.812 | 0.956 | 1.1 | 1.01
P fixed | 5.41 | 0.754 | 0.9 | 0.946 | 1.07 | 1.42 | 1.16 | 0.89 | 1.02
Q fixed | 0.629 | 0.904 | 0.883 | 0.948 | 0.953 | 1.03 | 0.941 | 1.02 | 1.06
R fixed | 0.798 | 2.21 | 1.66 | 1.39 | 1.35 | 1.41 | 1.9 | 1.32 | 1.3
V fixed | 0.777 | 1.09 | 0.989 | 1.16 | 0.995 | 0.861 | 0.864 | 0.85 | 0.831
W fixed | 0.753 | 0.859 | 0.824 | 1.16 | 0.638 | 0.807 | 0.752 | 1.07 | 1.07
Y fixed | 0.743 | 1.01 | 1.01 | 0.996 | 0.857 | 0.796 | 0.688 | 0.88 | 1.11
pThr fixed | 0.784 | 0.694 | 0.723 | 0.725 | 0.775 | 0.996 | 0.944 | 1.18 | 0.965
pTyr fixed | 0.717 | 0.523 | 0.796 | 0.631 | 0.774 | 0.772 | 0.734 | 0.661 | 0.949

BCKDK, construct: Full length (from UniProt O14874)
relative phosphorylation
Details | at +1 | at +2 | at +3 | at +4 | at -1 | at -2 | at -3 | at -4 | at -5
A fixed | 0.707 | 0.962 | 0.785 | 0.937 | 0.696 | 0.951 | 0.894 | 0.988 | 1.02
D fixed | 0.393 | 1.11 | 2.51 | 0.922 | 1.32 | 0.571 | 0.616 | 0.717 | 0.856
E fixed | 0.404 | 0.981 | 1.16 | 0.957 | 0.351 | 0.544 | 0.654 | 0.821 | 0.72
F fixed | 0.915 | 0.909 | 1.11 | 1.13 | 0.742 | 1.19 | 1.26 | 1.14 | 1.18
G fixed | 0.489 | 1.36 | 1.11 | 0.99 | 1.3 | 1.72 | 1.09 | 1.18 | 1.14
H fixed | 0.698 | 1.31 | 0.929 | 0.973 | 1.69 | 1.33 | 1.17 | 1.14 | 1.26
I fixed | 1.59 | 0.502 | 0.71 | 0.645 | 0.565 | 0.913 | 0.854 | 0.871 | 0.794
K fixed | 0.483 | 0.704 | 0.538 | 0.577 | 0.425 | 0.901 | 0.8 | 0.886 | 1.02
L fixed | 2.58 | 0.628 | 1.03 | 0.656 | 0.607 | 0.855 | 0.877 | 0.964 | 0.858
M fixed | 2.1 | 0.966 | 0.889 | 0.781 | 0.577 | 1.05 | 1.01 | 1.1 | 0.962
N fixed | 0.513 | 1.16 | 0.754 | 0.761 | 4.15 | 0.917 | 0.932 | 0.786 | 0.944
P fixed | 0.404 | 0.61 | 0.831 | 1.08 | 0.432 | 0.866 | 0.976 | 1.05 | 0.819
Q fixed | 0.69 | 1.17 | 0.749 | 0.724 | 0.619 | 0.867 | 0.804 | 0.75 | 0.678
R fixed | 0.671 | 1.43 | 0.834 | 0.859 | 0.562 | 0.893 | 1.02 | 0.937 | 1.01
V fixed | 1.84 | 0.553 | 0.641 | 0.709 | 0.514 | 0.699 | 0.734 | 0.791 | 0.879
W fixed | 0.688 | 1.35 | 1.53 | 2.53 | 1.06 | 1.51 | 1.74 | 1.64 | 1.73
Y fixed | 1.84 | 1.28 | 0.896 | 1.76 | 1.39 | 1.23 | 1.57 | 1.24 | 1.13
pThr fixed | 0.535 | 0.616 | 0.681 | 0.682 | 0.541 | 0.847 | 0.904 | 0.931 | 0.896
pTyr fixed | 0.502 | 0.681 | 0.53 | 1.46 | 0.581 | 0.994 | 1.31 | 1.14 | 0.896

IRAK1, construct: aa186-530 (from UniProt P51617)
relative phosphorylation
Details | at +1 | at +2 | at +3 | at +4 | at -1 | at -2 | at -3 | at -4 | at -5
A fixed | 0.864 | 0.732 | 0.528 | 0.839 | 0.549 | 1.22 | 1.05 | 0.838 | 0.984
D fixed | 0.289 | 0.355 | 0.361 | 0.391 | 0.359 | 0.433 | 0.405 | 0.63 | 0.557
E fixed | 0.435 | 1.03 | 0.316 | 0.501 | 0.236 | 0.423 | 0.57 | 0.668 | 0.629
F fixed | 1.34 | 0.929 | 1.71 | 0.843 | 1.69 | 1.07 | 1.02 | 1.17 | 1.09
G fixed | 1.28 | 0.501 | 0.55 | 0.766 | 0.4 | 0.801 | 0.874 | 0.846 | 1.01
H fixed | 0.703 | 1.2 | 0.889 | 1.13 | 1.34 | 1.12 | 1.55 | 1.08 | 1.3
I fixed | 2.14 | 2.49 | 1.84 | 1.27 | 0.864 | 1.08 | 1.19 | 1.29 | 1.38
K fixed | 0.885 | 0.442 | 0.719 | 1.32 | 0.789 | 0.64 | 1.02 | 1.06 | 1.01
L fixed | 1.25 | 0.867 | 1.22 | 1.13 | 0.847 | 1.67 | 1.11 | 1.09 | 0.973
M fixed | 1.59 | 1.07 | 1.56 | 1.17 | 1.02 | 1.78 | 1.43 | 1.08 | 1.12
N fixed | 0.604 | 0.781 | 0.558 | 0.806 | 0.776 | 1.47 | 0.918 | 1.33 | 0.973
P fixed | 0.159 | 0.336 | 0.221 | 0.969 | 0.287 | 0.495 | 0.464 | 0.559 | 0.696
Q fixed | 1.08 | 0.734 | 0.567 | 0.766 | 0.527 | 0.957 | 0.954 | 0.813 | 0.845
R fixed | 1.05 | 0.633 | 1.04 | 1.75 | 1.53 | 1.16 | 1.5 | 0.988 | 1.29
V fixed | 1.69 | 1.95 | 1.07 | 0.745 | 0.863 | 0.788 | 0.849 | 1.16 | 1.07
W fixed | 0.854 | 1.37 | 2.17 | 1.54 | 2.85 | 0.745 | 0.9 | 1.11 | 0.809
Y fixed | 0.799 | 1.58 | 1.69 | 1.06 | 2.08 | 1.13 | 1.21 | 1.27 | 1.27
pThr fixed | 0.544 | 0.539 | 0.403 | 0.473 | 0.484 | 0.857 | 0.765 | 1.09 | 0.722
pTyr fixed | 0.357 | 0.562 | 0.482 | 0.464 | 0.522 | 0.756 | 1.19 | 0.831 | 0.843
